The sequences below were run on Escherichia coli TOP10 (assay: shrunken log2 fold change of peptide-encoding DNA abundance (4.5 h post-induction vs induction); higher = less antimicrobial activity (less host growth inhibition)). Settings: time post-induction: 4.5 h; library: site-saturation at positions 5, 18, 19, 20.
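Further: peptides expressed intracellularly from a pBAD plasmid library in pooled LB shake-flask culture, induced with 0.3% L-arabinose, DNA abundance read by NGS, three biological replicates, DESeq2 with apeglm shrinkage.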

Row | Sequence | shrunken log2 fold change
1 | RRIRPRPPRLPRPRPRPWQRPRP | -0.0107
2 | RRIRERPPRLPRPRPRPLIAPRP | -0.128
3 | RRIRNRPPRLPRPRPRPQESPRP | -0.342
4 | RRIRKRPPRLPRPRPRPDGYPRP | -0.0936
5 | RRIRQRPPRLPRPRPRPKNWPRP | 0.139
6 | RRIRKRPPRLPRPRPRPNPMPRP | 0.459
7 | RRIRFRPPRLPRPRPRPCGLPRP | -0.00916
8 | RRIRYRPPRLPRPRPRPDWYPRP | -0.968
9 | RRIRWRPPRLPRPRPRPLVYPRP | 0.114
10 | RRIRWRPPRLPRPRPRPSGCPRP | -0.0452
11 | RRIRCRPPRLPRPRPRPRDTPRP | 0.0379
12 | RRIRLRPPRLPRPRPRPIWFPRP | 0.0419
13 | RRIRCRPPRLPRPRPRPFWWPRP | 0.925
14 | RRIRERPPRLPRPRPRPYWSPRP | -0.568
15 | RRIRVRPPRLPRPRPRPRLLPRP | 0.0401
16 | RRIRCRPPRLPRPRPRPKRSPRP | 0.235
17 | RRIRNRPPRLPRPRPRPDTAPRP | -0.235
18 | RRIRNRPPRLPRPRPRPSFRPRP | 0.0751
19 | RRIRQRPPRLPRPRPRPNNRPRP | -0.686
20 | RRIRCRPPRLPRPRPRPIICPRP | -0.442

Row | Sequence | shrunken log2 fold change
21 | RRIRYRPPRLPRPRPRPFNRPRP | -0.0175
22 | RRIRNRPPRLPRPRPRPWLKPRP | -0.0113
23 | RRIRARPPRLPRPRPRPPTFPRP | 0.158
24 | RRIRWRPPRLPRPRPRPTVRPRP | 1.14
25 | RRIRMRPPRLPRPRPRPFHDPRP | -0.14
26 | RRIRTRPPRLPRPRPRPDLTPRP | 0.129
27 | RRIRARPPRLPRPRPRPGSKPRP | 0.227
28 | RRIRIRPPRLPRPRPRPAIRPRP | -0.161
29 | RRIRVRPPRLPRPRPRPMQGPRP | -0.0882
30 | RRIRPRPPRLPRPRPRPSVHPRP | -0.289
31 | RRIRSRPPRLPRPRPRPWGKPRP | -0.109
32 | RRIRIRPPRLPRPRPRPAQKPRP | -0.00244
33 | RRIRWRPPRLPRPRPRPLPHPRP | 0.188
34 | RRIRRRPPRLPRPRPRPWIRPRP | -0.298
35 | RRIRWRPPRLPRPRPRPKVSPRP | 0.198
36 | RRIRQRPPRLPRPRPRPFHLPRP | -0.0558
37 | RRIRQRPPRLPRPRPRPCPLPRP | -0.0641
38 | RRIRFRPPRLPRPRPRPIGGPRP | 0.14
39 | RRIRWRPPRLPRPRPRPCWQPRP | -0.0167
40 | RRIRDRPPRLPRPRPRPEAPPRP | 0.412

Row | Sequence | shrunken log2 fold change
41 | RRIRVRPPRLPRPRPRPLLIPRP | -0.304
42 | RRIRCRPPRLPRPRPRPTFEPRP | -0.279
43 | RRIRQRPPRLPRPRPRPPNNPRP | -0.259
44 | RRIRYRPPRLPRPRPRPQDAPRP | -0.215
45 | RRIRIRPPRLPRPRPRPVEAPRP | -0.205
46 | RRIRLRPPRLPRPRPRPCTCPRP | -0.238
47 | RRIRFRPPRLPRPRPRPRIAPRP | 0.214
48 | RRIRTRPPRLPRPRPRPICNPRP | -0.00195
49 | RRIRNRPPRLPRPRPRPWLVPRP | -0.151
50 | RRIRLRPPRLPRPRPRPISHPRP | -0.137
51 | RRIRCRPPRLPRPRPRPRWCPRP | -0.131
52 | RRIRPRPPRLPRPRPRPFTPPRP | -0.112
53 | RRIRARPPRLPRPRPRPKCHPRP | 0.161
54 | RRIRYRPPRLPRPRPRPRQPPRP | 0.137
55 | RRIRQRPPRLPRPRPRPSPLPRP | 0.0509
56 | RRIRKRPPRLPRPRPRPFLGPRP | 0.0561
57 | RRIRSRPPRLPRPRPRPDVCPRP | 0.0421
58 | RRIRLRPPRLPRPRPRPKMKPRP | -0.476
59 | RRIRLRPPRLPRPRPRPEIYPRP | -0.0581
60 | RRIRLRPPRLPRPRPRPMGWPRP | 0.203

Source: the supplement of paper PMC9112550, “Optimization of the antimicrobial peptide Bac7 by deep mutational scanning” (BMC Biology, 2022)
